Test: soluble on expression in E. coli; label from the status in PepcDB or PDB records

Row | Sequence | soluble on expression in E. coli
1 | MAATNHAQAIKKDTKDFITTALLQMLAKEKLQALTVSQICKRAGVSRMAFYRNFNGLEQILYEYYQPKIGAMFDTIRENPQFSAKFDSQLKFFNTFGDDIILSIDRGFEPIIQQIFKEEIEKFYFKDNDEHWTTFMSAGVYAIWRKWLLDGRQKPLKEIMDFFKQFDMIKGNV | not soluble
2 | MGSDKIHHHHHHMKNIIGILGVFILAISCSGGKKESADAGLELTEDSVVYLLADNVTLGIKALFPFIDKDGHEYLTFQNQLEPEICVYDLQSGEFVKSIFFDREGANGVGMFGGYHIIDFDEIYLPSLQQSKVFVMEESGKKKREIITEKTDDGIPLLPFGAITFAYRPIYFNNGKMYIPQTVNMRLGNKVMEKSPVYVVVDTVKNVLSPFSIKFPPIMSSDDVTKPSLGNELSYSCCLNDKDQFVFSFFFDEDIYVVSLQDGEMKKIKVKSRYIDKPAIKENPPQDFDGAMKASSEIPCYGNLIYDKYRKVYYRFVYLKADLDGEKNYLNIWQYGRKSFSIMILNEDFDVIGETRFPDFTYISTLHYIGKDGLYLSDSHYKNPSFDENKLRFRRFKLVHYNKK | not soluble
3 | MSLIGALIATIIPGLSNNSPPTQLSSLATLALPLPPPYTSTADTWRMVTIKPGQTLSSIFNELKLSSNDMERVLNYADLRKLLTRLSPGDEISFDIPNDGQLRGMRFNRDEKHRVELTLDDNTIHQQVSERQTSTRTVIASGEIKSSLWIAAREAGLSPADVITLTDEIFKYDIDFDKDLQTGDRFSVVMDETWREGERLPDAKILAATFNTGGKIYSGMRFMRDGKVEYFDKDGRPLKKSFIRMPISYARLSSTFGLRRHPILGTMRMHKGVDYAAATGTPIMAAGDARVQFIGQQRGYGNVVILNHGKGYRTLYGHMSRFGKIKAGQKINQGTVIGYVGMTGLATGPHLHYEFQVNGQHRNPLSITMPPPEPLRGKDLIAFRTQTAPLIAQIQQYEKRFYAITNKHDSKSTEKSTRGEGHHHHHH | not soluble
4 | YKIDFYRNFLVPLKVGKIKKIILDLRGNGGGMVLDARTFTDRFITKDAIFGYQRFKEDNNPFSYTPWIPCMTKTTGIGIKKEIPIVILLDNNSASMSEISTLMLKSQGKHVTVVGGYSAGATAGLGDSDQFNGGIRGKVSDYLEFYMPLLAMQDATHTVIEGIGIKPDLLVDPLTEDEVREMALSPFTHIDRTLKQAIEVLSNN | not soluble
5 | MGSDKIHHHHHHMKISNISYFNFRNLENTSIDLSDKINVFYGKNAQGKTSLLEAIYYSSTGISFKTKKTSEMIKYNFDEFISSISYQDYIANNKISVRFKNIAGAKKEFFFNKKRISQTDFYGKINIIAYIPEDIILINGSPKHRRDFFDIEISQIDKEYLTNLKNYDKLLKIRNKYLKENKRNSEEFAIYEKEFIKYASYIIFTRIEYVKSLSIILNLQYRKLFNIAQELNLRYETSLDKTAKVTIEMIQESLKREISQKKYQEDKYKFSLVGPHKDDYKFLLNGHEAKISASQGEKKSIIFSLKLSEIEIIKKNRKENPVVIIDDITSYFDEDRRKSILDFFNKRDIQVLISSTDKLDIEAKNFYVEKGIIKDESNINK | not soluble
6 | MSLAILIVECMQEISSFNPVPSDYELFHIEEGEDLFQHRGRNTAIGGALSVLEATPGVTLIPTVAARADSAGILSAEGWARLSAQILDRVRAGVGGADAIYVSLHGAMGAVGEPDPEGWLLAQIRALAGPDRPIIISLDLHGILTERMIAQVDGIAVYHTYPHVDFADTGARAARLLLDRLTARRPASIVRAVIPALVRGDELITATGCYGDLIRECRRLEADGMVLAAGLMIGNPFTDAPELCSQVVLTTDDPLRGRAEAERLAAAFWALRHRMQGRLIGLSDAVAEARTLTGPVVFTDAADATSSGASGDSNAILRGLLAADYPGRVLAQIVDPQAAEAAHRAGVGAEIPVTLGGRMDPARFTPLEVTARVRLLSDGLTRLETMKTPLNAGRCAVLEFGTVTVVAMSLPAMLFDRAIYYANGLDPADFDLIVVKSPHTEHHMYDAWVTRNFNIDTPGSTSADLASLGHRICARPMFPLDPLTDFTPRATAHLRADRSEGHHHHHH | soluble
7 | SMSDVTIVKEGWVQKRGEYIKNWRPRYFLLKTDGSFIGYKEKPQDVDLPYPLNNFSVAKCQLMKTERPKPNTFIIRCLQWTTVIERTFHVDTPEEREEWTEAIQAVADRLQRQEEERMN | soluble
8 | MVISLGDDITTVLKTVQQTLFALRDEHEAATRILEANLINSDSSEPSLPSEKMGLIDESLGKVMDGGDEASLLIMMDKLMQSYDVQLSKNHESIRLLRQENTWLLDELTTTQRKLQESERTVAHLEEERDHYKFQDSMNYLNSDFQHTTSVDATPMMVDTLQELGFGPEEEDQNNNQADQGCRSSSFSNPISNDYQLPTRLQTLQNLVIQYMEQGRFEVAIPLCKQALEDVVKVHGNVHLDVATMLNVLAIVYRNQENFKDAAIYLEKALSIRVQCCGENHHSVAATLNNLAIAYGKRGKYKESEPLCKRALEIRKNLLGPNHPDVAKQLTNLGIVTQQLEKYEETENYFKQALSIYNRAFPENHQNVIKTKNQLASVFLKQGKYQEAEEMYKNILSKVAITGNKPIWRIAEDREERQRNGIPKVDDESFNVNPTTVMDSNVMSTIKNLAAVYRKQGKEEAAGTLEEALGAKKQINGGADHTNSTASSVETSSAVAINPAQSGIKKRIMHFVGLNF | not soluble
9 | MSIEVIAVRLTKGMDLKLSLAKLVAEHDIKAGSIASCVGCISDLNLRLAGAESTLTKREPFEIVSVMGTLTPEHQHVHISVSDREGRVWGGHLLEGTVIDTTAELIIHSYSELEFTRAMDDSTGYTELQVNPSKLEHHHHHH | not soluble
10 | MGSDKIHHHHHHMAKDITLRQLRYFIAAARAGQFSMAATNEHVSQSAITNAVIALEQALGTKLFDRGAHGVTMTVDGHDFYHHARHVLDSVRDAMHKPRAGARATSGTVRIAASYAVLGYFLPELLARFRASFPAIELDLRDMDRAVIENAVLDGTIDLGVTLVSNTPRLDAFEHRILIRSRRQLWTAPSHPLAHAASMSLADIAMHPYILLTVDEGEASTTRYWQAKGMQPNIAFRTGSMEAVRGLVANGFGVTVLSDMLFRAWSLDGTRIDARPVVDSIPPMEVGLIWRPGAALAPAAQQLRHFLIQVNSGEAD | not soluble
11 | MAETSNASAEPELIYFEVTSNEERFVHMVFQMASNTTNQFLIFVKDDETCFRAQRALYSSGEMTQCFLKNMNKDAFKKRKQELKNGTAKVWIADRSVIGKLVDCFSKELTVFLYDGISNDFPKQAVGKCHSVISLKQSRHTAVNTSDGLFEQVFHICQLYNATFTSPIKDWMASSKNGDLPENADTMKLVIARPSELLNSASTLRSFNDIVAKDPRILNLMEAFKVIENKARIDKDDNSRGMLYLCVKMRSELDGQYVTKNKADQFYRVEFNTLKNMKNKSEFLRKMCPS | not soluble
12 | MNGGKETIDDMSLVVGMYGNYEVTKTGNLVGILEVSGINLDLLNETEQQDVFEDYGAFLMSTLGEGVDDTLQFLEPTIPVNMTTYLNGLKRRYLALQKDHPEQQFKIQLIASYLDHFTKVQESKNMTTKQHLLIVKVPIKDKSAESLNLAVAHLDEKIEQVKRDIENALTDFDVTAKILTSQEVQEILKNLINFNGLEHHHHHH | soluble
13 | MNYHQYYPIDVVNGPGTRCTLFVSGCVHQCRGCYNQSTQRLDSGVLFTQEAEDKIINDLNDTRIKRRGLSLSGGDPLHPANVPHILKIVKRVREECPGKDIWVWTGYTLAELDDAQREVVQYIDVLIDGKFEQDKKDLNLEWRGSSNQIIHRFTDILEHHHHHH | not soluble
14 | MSFTPANRAYPYTRLRRNRRDDFSRRLVRENVLTVDDLILPVFVLDGVNQRESIPSMPGVERLSIDQLLIEAEEWVALGIPALALFPVTPVEKKSLDAAEAYNPEGIAQRATRALRERFPELGIITDVALDPFTTHGQCGILDDDGYVLNDVSIDVLVRQALSHAEAGAQVVAPSDMMDGRIGAIREALESAGHTNVRVMAYSAKYASAYYGPFRDAVGSASNLGKGNKATYQMDPANSDEALHEVAADLAEGADMVMVKPGMPYLDIVRRVKDEFRAPTFVYQVSGEYAMHMGAIQNGWLAESVILESLTAFKRAGADGILTYFAKQAAEQLRRGR | soluble
15 | MVKIAIITYSTYGHIDVLAQAVKKGVEAAGGKADIYRVEETLPDEVLTKMNAPQKPEDIPVATEKTLLEYDAFLFGVPTRFGNLPAQWSAFWDKTGGLWAKGSLNGKAAGIFVSTSSYGGGQESTVKACLSYLAHHGIIFLPLGYKNSFAELASIEEVHGGSPWGAGTLAGPDGSRTASPLELRIAEIQGKTFYETAKKLFPAKEAKPSTEKKTTTSDAAKRQTKPAAATTAEKKEDKGLLSCCTVM | soluble
16 | MGSDKIHHHHHHMSTVAFHTLGCKVNHYETEAIWQLFKEANYERVDFEANADVFVINTCTVTNTGDKKSRQIIRRAIRQNPDAVICVTGCYAQTSSAEIMEIPGVDVVVGTQDRHKLLGYIDEFRKERQPINGVGNIMKNRKYEELDVPYFTDRTRASLKIQEGCNNFCTFCIIPWARGLMRSRDPEKVVEQATQLVNSGYKEIVLTGIHTGGYGQDLKDYNLAQLLRDLETINGLERIRISSIEASQLTDEVIDVLERSTKVVRHLHIPLQSGSDTVLKRMRRKYTMDRFSERLTKLHKALPDLAVTSDVIVGFPGETEAEFQETYDFIVKHKFSELHVFPYSPRIGTPAARMDDQIDEEIKNERVHKLITLSNQLGKLYASKFDQDVLEVIPEEQGDTEGTLVGYADNYMKVQFEGDESLIGQIVKVKITQANYPLNEGQAIKVVDFATNKSDREVLV | not soluble
17 | MAHHHHHHMGKNETDTDVLTSNVEVGSVLSQCAESRVHECNFYGYRAVCKHRFPKAYRHPALDQRLREQRTVREGRALARCLKNGVLAPTVFAVDRERCAIVMERIDGLTVREIFNHEQGNVAQGKTDVSFLVSFLLRGMGEVVGLLHNADIIHGDLTTSNFMCKRNFLERRLSTENLASNTSSRDSIVVLDFGLVMDKNSAEERAVDLYVLERALKSSHPFLEHVATRLVLEGYHRTVDPQKGSVTMARLEAVRARGRKRSMIG | not soluble
18 | MSAEPEFVAARFLPEGERFLVEPLGGGLINRTWLVSPAASPRFVLQRLNTRVFAHPGRITVNLCRIQGRVKQGRSGLAEHWPDLVAPRAGGDAFIDAEGGYWRAQRYLEGSRVLEHIATERQALEVGRVLGTFHAALGEIDCTELEDTLPDFHIAPAYLARLDAVRTSAGAADPSVRQALDFVEARRDFVPVLERAKAAGRLALRIIHGDPKLANILFDRDGERALTLIDLDTVKPGLVHYDIGDCLRSCCNRSGESSDDPGAARFDLALCEAILRGYLAAAGDMLTAEDRDHLYDAIRLIPLELGIRFLADHLAGDVYFRVESRGQNLRRARVQFRLVECIEADETAIRRIVAAPSPSMETGEGLEHHHHHH | not soluble
19 | SNAMILSQQKYNYLAKVSDSNGVISALAFDQRGALKCLMAQYQMKEPTVAQMEELKVLVSEELTPYASSILLDPEYGLPAAQARDREAGLLLAYEKTGYDANTTSRLPDCLVDWSIKRLKEAGADAVKFLLYYDVDGDPQVNVQKQAYIERIGSECQAEDIPFFLEILTYDETISNNSSVEFAKVKVHKVNDAMKVFSAERFGIDVLKVEVPVNMVYVEGFAEGEVVYSKEEAAQAFREQEASTDLPYIYLSAGVSAELFQETLVFAHKAGAKFNGVLCGRATWAGSVQVYMEEGKEAARQWLRTSGLQNINELNKVLKTTASPWTEKVSVG | soluble
20 | ATMTLTDANFQQAIQGDGPVLVDFWAAWCGPCRMMAPVLEEFAEAHADKVTVAKLNVDENPETTSQFGIMSIPTLILFKGGEPVKQLIGYQPKEQLEAQLADVLQ | soluble
21 | MSLSSAQQWSYVRQLQREIRRSDVLDLPLEKLPVVVFDLETSGFYPDQGDRILSIGAVKVVGLTIQEEETFYSVVHTDTVPPENILELTGLSVEELEAAPPLTSVLESFYAFIRHSTLVAHHASHEKAFMSHVTWQTMKLPFEHRVIDTSFLTKIVAPQELVTLDDCCAYYSIPVQNRHHAFEDSLMTAKLWIAAIAAAREAGEGHHHHHH | not soluble

Source: the DeepSol protein solubility set
